B1: 01G07R3 VHH Mono-Fc (Fc fusion)
chain: QVQLVESGGGLVQAGDSLRLSCAASGRTLSFDTYAMGWFRQAPGKEREFVASIDWSGGTTYYADSVKGRFTVTRDNAKNTVTLRMNSLKPADTAVYYCAAAQYYRSGTSFPANYWGQGTLVTVSSSPAPELLGGPSVFLFPPKPKDTLMISRTPEVTCVVVDVSHEDPEVKFNWYVDGVEVHNAKTKPREEQYNSTYRVVSVLTVLHQDWLNGKEYKCKVSNKALPAPIEKTISKAKGQPREPQVYTKPPSREEMTKNQVSLSCLVKGFYPSDIAVEWESNGQPENNYKTTVPVLDSDGSFRLASYLTVDKSRWQQGNVFSCSVMHEALHNHYTQKSLSLSPGK
B2: 01H02R3LS VHH Mono-Fc (Fc fusion)
chain: QVQLVESGGGLVQPGGSLRLSCAASGSIFSASVMGWYRQGPGKQREFVARISPGGVTHYADSVKGRFTISKDNAKNTVTLQMNSLKPEDTAVYYCNADRFGFEVYWGQGTLVTVSSSPAPELLGGPSVFLFPPKPKDTLMISRTPEVTCVVVDVSHEDPEVKFNWYVDGVEVHNAKTKPREEQYNSTYRVVSVLTVLHQDWLNGKEYKCKVSNKALPAPIEKTISKAKGQPREPQVYTKPPSREEMTKNQVSLSCLVKGFYPSDIAVEWESNGQPENNYKTTVPVLDSDGSFRLASYLTVDKSRWQQGNVFSCSVMHEALHNHYTQKSLSLSPGK
B3: 01D02R3LS VHH Mono-Fc (Fc fusion)
chain: QVQLVESGGGLVQAGDSLTLSCAASGRSVGFDTYGMAWFRQAPGKEREFVASIAYNGETTSYADSVQGRFTVTRENAKNTIALRMNGLKPDDTAVYYCAAAQYYLTGTSFPAKFWGQGTLVTVSSSPAPELLGGPSVFLFPPKPKDTLMISRTPEVTCVVVDVSHEDPEVKFNWYVDGVEVHNAKTKPREEQYNSTYRVVSVLTVLHQDWLNGKEYKCKVSNKALPAPIEKTISKAKGQPREPQVYTKPPSREEMTKNQVSLSCLVKGFYPSDIAVEWESNGQPENNYKTTVPVLDSDGSFRLASYLTVDKSRWQQGNVFSCSVMHEALHNHYTQKSLSLSPGK
B4: 01D01R3 VHH Mono-Fc (Fc fusion)
chain: EVQLVESGGGLVQAGGSLRLSCAASGRTFSVYGMGWFRQAPGQERAFVAAISWSDGSTYYADSVKGRFTISRDNAKNTMYLQMNSLKPEDTAVYFCAADLTGWGLDADVSEYDYWGQGTQVTVSSSPAPELLGGPSVFLFPPKPKDTLMISRTPEVTCVVVDVSHEDPEVKFNWYVDGVEVHNAKTKPREEQYNSTYRVVSVLTVLHQDWLNGKEYKCKVSNKALPAPIEKTISKAKGQPREPQVYTKPPSREEMTKNQVSLSCLVKGFYPSDIAVEWESNGQPENNYKTTVPVLDSDGSFRLASYLTVDKSRWQQGNVFSCSVMHEALHNHYTQKSLSLSPGK
B5: 01E03R2 VHH Mono-Fc (Fc fusion)
chain: B4 chain with Q120L
B6: 01G04R3 VHH Mono-Fc (Fc fusion)
chain: B4 chain with E1Q
B7: 02B11R3 VHH Mono-Fc (Fc fusion)
chain: EVQLVESGGGLVQAGGSLRLSCAASGRTFSPYGMGWFRQTPGKERAFVAAVDWNDGSTYYSDSVKGRFTISRDNAKNTVYLQMNSLKSEDTAVYYCAADLTGWGLDADVSEYDYWGQGTLVTVSSSPAPELLGGPSVFLFPPKPKDTLMISRTPEVTCVVVDVSHEDPEVKFNWYVDGVEVHNAKTKPREEQYNSTYRVVSVLTVLHQDWLNGKEYKCKVSNKALPAPIEKTISKAKGQPREPQVYTKPPSREEMTKNQVSLSCLVKGFYPSDIAVEWESNGQPENNYKTTVPVLDSDGSFRLASYLTVDKSRWQQGNVFSCSVMHEALHNHYTQKSLSLSPGK
B8: 01E02R3LS VHH Mono-Fc (Fc fusion)
chain: EVQLVESGGGLVETGGSLRLSCAASGRTESTYTMAWFRQAPGKERERVATISFSGSTTTYLASVQGRFTISRDGAKNTIFLQMNGLKPEDTAVYYCALDTRRRVGSSPRFYDYWGQGTLVTVSSSPAPELLGGPSVFLFPPKPKDTLMISRTPEVTCVVVDVSHEDPEVKFNWYVDGVEVHNAKTKPREEQYNSTYRVVSVLTVLHQDWLNGKEYKCKVSNKALPAPIEKTISKAKGQPREPQVYTKPPSREEMTKNQVSLSCLVKGFYPSDIAVEWESNGQPENNYKTTVPVLDSDGSFRLASYLTVDKSRWQQGNVFSCSVMHEALHNHYTQKSLSLSPGK
B9: 01D08R3 VHH Mono-Fc (Fc fusion)
chain: QVQLVESGGGLVQAGDSLRLSCAASGRTSSLYNMGWFRQAPGQEREFVAAIHWGGGRTYYADSVKGRFTISRDNAKNTVYLQMNSLEPGDTANYYCAARRAPELLDDYKQKPEEIGAYHYWGQGTQVTVSSSPAPELLGGPSVFLFPPKPKDTLMISRTPEVTCVVVDVSHEDPEVKFNWYVDGVEVHNAKTKPREEQYNSTYRVVSVLTVLHQDWLNGKEYKCKVSNKALPAPIEKTISKAKGQPREPQVYTKPPSREEMTKNQVSLSCLVKGFYPSDIAVEWESNGQPENNYKTTVPVLDSDGSFRLASYLTVDKSRWQQGNVFSCSVMHEALHNHYTQKSLSLSPGK
B10: 01F03R2 VHH Mono-Fc (Fc fusion)
chain: QVQLVESGGGLVQAGGSLRLSCAASGRTFSSYAMGWFRQAPGKEREFVAVISWSGGSTYYADSVKGRFTISRDNAKNTVYLQMNSLKPEDTAVYYCASGEQPGSNRPYIPEQPIEFMPTDYPSWYDYWGQGTQVTVSSSPAPELLGGPSVFLFPPKPKDTLMISRTPEVTCVVVDVSHEDPEVKFNWYVDGVEVHNAKTKPREEQYNSTYRVVSVLTVLHQDWLNGKEYKCKVSNKALPAPIEKTISKAKGQPREPQVYTKPPSREEMTKNQVSLSCLVKGFYPSDIAVEWESNGQPENNYKTTVPVLDSDGSFRLASYLTVDKSRWQQGNVFSCSVMHEALHNHYTQKSLSLSPGK
B11: 01B01R3 VHH Mono-Fc (Fc fusion)
chain: B10 chain with Q133L
B12: 01C02R3 VHH Mono-Fc (Fc fusion)
chain: QVQLVESGGGLVQAGGSLRLSCAASGLSFSSYTMGWFRQVPGKERELISAIHWSGGPTFYSNSVKGRFTISRDNAKDTVYLQMNSLKPEDTAVYYCTAEPVGSMISPDWTYWGQGTLVTVSSSPAPELLGGPSVFLFPPKPKDTLMISRTPEVTCVVVDVSHEDPEVKFNWYVDGVEVHNAKTKPREEQYNSTYRVVSVLTVLHQDWLNGKEYKCKVSNKALPAPIEKTISKAKGQPREPQVYTKPPSREEMTKNQVSLSCLVKGFYPSDIAVEWESNGQPENNYKTTVPVLDSDGSFRLASYLTVDKSRWQQGNVFSCSVMHEALHNHYTQKSLSLSPGK
B13: 03D01R3 VHH Mono-Fc (Fc fusion)
chain: EVQLVESGGGLVQPGGSLRLSCAASGFTFRTYYMGWFRQAPGKEREFVGVTRSSDDVTYYADSVKGRFTISRDNAKNTVYLQMSRLKPEDTAVYYCAAKPVPITRYSFPQIGEEYDYWGQGTLVTVSSSPAPELLGGPSVFLFPPKPKDTLMISRTPEVTCVVVDVSHEDPEVKFNWYVDGVEVHNAKTKPREEQYNSTYRVVSVLTVLHQDWLNGKEYKCKVSNKALPAPIEKTISKAKGQPREPQVYTKPPSREEMTKNQVSLSCLVKGFYPSDIAVEWESNGQPENNYKTTVPVLDSDGSFRLASYLTVDKSRWQQGNVFSCSVMHEALHNHYTQKSLSLSPGK
B14: 02B09R3 VHH Mono-Fc (Fc fusion)
chain: B13 chain with Q39R, N77D
B15: 01C09R3 VHH Mono-Fc (Fc fusion)
chain: B13 chain with P14A
B16: 03D09R3 VHH Mono-Fc (Fc fusion)
chain: QVQLVESGGGLVQAGGSLRLSCAASGRTVSSVAMGWFRQAPGKEREFVATISWTGGSTYYADSVKGRFTISRDNAKNTAYLQMNSLKPEDTAVYYCAAGYPADPIALMTLRYEYDYWGQGTLVTVSSSPAPELLGGPSVFLFPPKPKDTLMISRTPEVTCVVVDVSHEDPEVKFNWYVDGVEVHNAKTKPREEQYNSTYRVVSVLTVLHQDWLNGKEYKCKVSNKALPAPIEKTISKAKGQPREPQVYTKPPSREEMTKNQVSLSCLVKGFYPSDIAVEWESNGQPENNYKTTVPVLDSDGSFRLASYLTVDKSRWQQGNVFSCSVMHEALHNHYTQKSLSLSPGK

Changes are numbered by the printed parent chain.

A word on the Kd: it is the concentration at which binding is half-saturated.

In the first assay the target is T1, cynomolgus monkey pIgR extracellular domain (cynomolgus monkey, UniProt A0A2K5WMU9 19-638).
T1 construct: extracellular domain
T1 sequence (A0A2K5WMU9 entry or part of it): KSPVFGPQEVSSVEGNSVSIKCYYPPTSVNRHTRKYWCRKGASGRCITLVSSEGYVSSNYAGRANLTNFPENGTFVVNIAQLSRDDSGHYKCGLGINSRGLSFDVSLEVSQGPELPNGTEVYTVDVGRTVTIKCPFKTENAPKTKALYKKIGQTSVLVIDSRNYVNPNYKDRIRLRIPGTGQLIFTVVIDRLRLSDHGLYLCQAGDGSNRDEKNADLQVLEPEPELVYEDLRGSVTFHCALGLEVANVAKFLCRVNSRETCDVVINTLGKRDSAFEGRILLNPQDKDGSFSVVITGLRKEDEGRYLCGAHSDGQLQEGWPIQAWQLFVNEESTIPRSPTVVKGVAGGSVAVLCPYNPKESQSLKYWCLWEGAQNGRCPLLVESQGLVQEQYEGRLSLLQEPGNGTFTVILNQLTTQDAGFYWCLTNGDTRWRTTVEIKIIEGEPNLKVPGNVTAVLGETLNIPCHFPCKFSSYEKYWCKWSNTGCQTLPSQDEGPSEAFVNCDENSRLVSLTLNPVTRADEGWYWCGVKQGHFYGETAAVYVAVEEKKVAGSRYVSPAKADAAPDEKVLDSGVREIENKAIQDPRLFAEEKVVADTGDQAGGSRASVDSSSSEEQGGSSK
In words: SPR, VHH captured by anti-Fc, ECD analyte. As for the experimental part: (§1) In an assay, two flow cells of the SPR were used, in which the flow cell 1 ran the buffer reference, and the flow cell 2 ran the analyte. […] The HBSP (GE) buffer was followed at a flow rate of 30 μL/min. Then, the VHHs were captured on the anti-human Fc protein surface at 0.5 ug/ml (˜200-300 RU) on the flow cell 2. The running buffer was changed to HBSP with 100 ug/ml BSA after the capture. Next, the pIgR extracellular domains were used as analyte and loaded in a series of concentrations, starting at 30 nM with further 3-fold dilution series.
(§2) The extracellular domains were prepared as follows: cynomolgus monkey and rat extracellular domains were produced and characterized in house; mouse and human pIgR extracellular domains were purchased from R&D Systems (Cat #2800-PG-050 & 2717-PG-050 respectively). The pIgR extracellular domains were injected from low to high concentration using a single-cycle kinetics method. The off-rate was monitored at 30 minutes after the last or highest concentration injection. The reference run was completed under the same conditions except that the pIgR injection was replaced by buffer injection.
(§3) The raw data were processed by subtracting two sets of reference data from the response data: (1) reference flow cell 1 subtracted from sample flow cell 2; and (2) buffer blank run subtracted from experimental run. The processed data at all concentrations for each VHH were globally fit to a 1:1 simple Langmuir binding model to extract estimates of the kinetic constants (kₒₙ, koff) and affinity constants (KD).
On the technique in general: SPR reads the build-up and loss of mass on a sensor chip optically.
B1 showed a Kd of 40.8 nM.

Consider B2, for which the affinity, expressed as Kd, was 20.6 nM.

As for B3, binding was characterised by a dissociation constant (Kd) of 0.885 nM.

B4 gave a Kd of 375 nM.

B5 showed a dissociation constant Kd of 373 nM.

For the molecule B6, the dissociation constant Kd turned out to be 399 nM.

Take B7: the affinity, expressed as Kd, was 101 nM.

As for B8, the Kd stood at 0.018 nM.

As for B9, the dissociation constant Kd worked out at 448 nM.

As to B10, the Kd worked out at 3.57 nM.

Consider B11, for which binding was put at a Kd of 3.78 nM.

Consider B12, for which the Kd came to 8.43 nM.

B13 had a dissociation constant (Kd) of 5.51 nM.

Molecule B14 came in with a Kd of 9.51 nM.

B15 showed a Kd of 5.73 nM.

Molecule B16 yielded a Kd of 0.004 nM.

For the next assay, the target named is T2, human pIgR extracellular domain (ECD) (human, UniProt P01833 19-638).
T2 construct: Bought from R&D Systems (Cat 2717-PG-050); also called hpIgR ECD
T2 sequence (P01833 other isoform, or with tags, fused parts or gaps): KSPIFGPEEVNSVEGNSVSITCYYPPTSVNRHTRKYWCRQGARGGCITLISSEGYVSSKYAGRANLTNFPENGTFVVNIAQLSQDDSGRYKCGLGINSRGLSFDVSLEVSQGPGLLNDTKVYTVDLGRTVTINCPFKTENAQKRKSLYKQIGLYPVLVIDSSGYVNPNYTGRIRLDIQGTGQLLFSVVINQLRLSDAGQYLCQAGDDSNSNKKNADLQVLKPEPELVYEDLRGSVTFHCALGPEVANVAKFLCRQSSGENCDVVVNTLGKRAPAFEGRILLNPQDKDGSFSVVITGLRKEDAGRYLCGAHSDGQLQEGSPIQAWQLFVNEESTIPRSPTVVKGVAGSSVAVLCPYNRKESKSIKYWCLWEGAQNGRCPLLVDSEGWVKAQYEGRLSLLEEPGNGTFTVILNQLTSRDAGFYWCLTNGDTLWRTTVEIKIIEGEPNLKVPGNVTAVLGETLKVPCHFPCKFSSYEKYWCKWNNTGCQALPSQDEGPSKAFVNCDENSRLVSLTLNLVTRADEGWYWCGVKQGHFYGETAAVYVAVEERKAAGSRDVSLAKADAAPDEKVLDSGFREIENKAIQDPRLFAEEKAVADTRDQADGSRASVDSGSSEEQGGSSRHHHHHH
Description: SPR, VHH captured by anti-Fc, ECD analyte. On the procedure:
as §1, §2, §3
B1 displayed a Kd of 1.18 nM.

Molecule B2 had a Kd of 3.24 nM.

B3 gave a Kd of 0.809 nM.

In the case of B4, the Kd is 5.96 nM.

As to B5, the affinity, expressed as Kd, was 6.1 nM.

Regarding B6, the Kd was found to be 6.22 nM.

Molecule B7 had a Kd of 0.858 nM.

B8 returned a dissociation constant (Kd) of 0.6 nM.

As to B9, the Kd is 0.195 nM.

For B10, the Kd was 1.36 nM.

As to B11, the Kd came out at 1.38 nM.

Molecule B12 had a dissociation constant (Kd) of 1.23 nM.

In the case of B13, the Kd worked out at 2.26 nM.

For B14, the Kd was 2.46 nM.

Take B15: the Kd worked out at 2.18 nM.

As to B16, binding was characterised by a dissociation constant (Kd) of 0.072 nM.

For the origin of these results see patent US20220112276A1 (Janssen / Centocor, published 2022).
